These results are taken from patent US9187762B2, “Compositions and methods comprising sequences having hydroxyphenylpyruvate dioxygenase (HPPD) activity” (PIONEER HI-BRED INTERNATIONAL, INC., priority 2010, dated 2015).

One data set relates to T0 soybean plants. Description: Herbicide spray test of transgenic T0 HPPD soy plants using mesotrione, visual injury. Type of data set: in vivo. The following applies: mesotrione 210 g ai/ha, eight days after treatment. The text has this: (1987) Nature 327:70-73, U.S. Pat. No. 4,945,050) using a DuPont Biolistic PDS1000/He instrument. A selectable marker gene used to facilitate soybean transformation was a chimeric gene composed of the 35S promoter from Cauliflower Mosaic Virus (Odell et al. (1985) Nature 313:810-812), the hygromycin phosphotransferase gene from plasmid pJR225 (from E coli; Gritz et al. (1983) Gene 25:179-188) and the 3' region of the nopaline synthase gene from the T-DNA of the Ti plasmid of Agrobacterium tumefaciens. Another selectable marker used to facilitate soybean transformation was a chimeric gene composed of the S-adenosylmethionine synthase (SAMS) promoter (U.S. Pat. […] Pat. […] The selection agent used during the transformation process was either hygromycin or chlorsulfuron depending on the marker gene present. […] Pat. […] (1995) Genetics 139 (2), 921-939; Genbank L05363). In specific constructs, the SCP1 promoter of U.S. Pat. No. 6,072,050 was employed. Bombardments were carried out with linear DNA fragments purified away from any bacterial vector DNA. […] Bombarded soybean embryogenic suspension tissue was cultured for one week in the absence of selection agent, then placed in liquid selection medium for 6 weeks. […] Putative transgenic suspension culture tissue was maintained in selection medium for 3 weeks to obtain enough tissue for plant regeneration. Suspension tissue was matured for 4 weeks using standard procedures; matured somatic embryos were desiccated for 4-7 days and then placed on germination induction medium for 2-4 weeks. Germinated plantlets were transferred to soil in cell pack trays for 3 weeks for acclimatization. Plantlets were potted to 10-inch pots in the greenhouse for evaluation of herbicide resistance. […] Some T0 plants were not sprayed with herbicide and were all advanced to the next generation for testing.

Data set [1] deals with maize HPPD. The data set can be described thus: HPPD activity, coupled assay with HGD at 320 nm; substrate saturation kinetics (KM, kcat). In kind it is biochemical. The text has this:
HPPD catalyzes the conversion of 4-hydroxyphenylpyruvate (HPP) to homogentisate. See, FIG. 1. […] However, the product of the ensuing reaction in tyrosine metabolism, maleylacetoacetate, absorbs strongly at 320 nm. Furthermore, the enzyme catalyzing that reaction is also a dioxygenase having similar mechanism and buffer requirements as HPPD, making homogentisate dioxygenase (HGD) an ideal partner in a coupled assay, as shown.
The HDG gene from Pseudomonas aeruginosa (Amaya (2004) Arch Biochem Biophys 421, 135-142) was cloned into pVER7062 and electroporated into E. coli strain BL21(DE3). The enzyme was produced by methods similar to those described for HPPD. The purified enzyme has a KM for homogentisate of 23 uM and a kcat of 100/sec, properties highly suited for instantly converting the homogentisate produced by HPPD to maleylacetoacetate.
HPPD activity was measured by placing an aliquot (e.g., 6 ul) of the substrate HPP at 50-fold the desired final concentration into the wells of a low UV-absorbing assay plate. Reactions were started by adding a mixture (e.g., 294 ul) containing 25 mM Hepes, pH 7, 2 mM ascorbate, 10 uM FeSO4, 1 to 100 uM HPP, 50 nM HGD and 5 to 240 nM HPPD. Absorbance at 320 nm was monitored continuously in a plate-reading spectrophotometer (Spectramax, Molecular Devices).
The catalytic performance of wild-type HPPD and variants generated by shuffling was assessed by determining the substrate saturation parameters. The Michaelis-Menten kinetics protocol of the Spectramax software was customized for HPP concentrations ranging from 3.33 uM to 100 uM, or up to 1 mM if required. Reaction rates were measured as described above for each concentration of HPP. The software returns values of KM and Vmax using the Lineweaver-Burke transformation of the Michaelis-Menten equation.

Data set [2] relates to maize HPPD. Description: ON rate ratio, OFF rate ratio and insensitivity parameter with herbicidal HPPD inhibitors. In kind it is biochemical. The following applies: for ON rate ratio: mesotrione 4 uM, 100 uM HPP, 70 to 90 second interval; for OFF ratio / ON ratio / ON × OFF Value: maize HPPD. The source says:
To devise a parameter for detecting changes in inhibitor binding affinity, KD, one can utilize the relationship between KD and the rates of binding and release of inhibitor to and from the enzyme. [formula] Higher KD (reduced affinity or increased insensitivity) can be attained with a numerically smaller ON rate, a larger OFF rate or both. […] The ratio of the reaction rate with inhibitor to that without inhibitor during the 70 to 90 second interval of the reaction was termed the “ON rate ratio”. […] Incubations with the same concentrations of enzyme but no mesotrione were done in parallel. After 1 hr at room temperature, 5 to 10 ul of the enzyme-inhibitor complex was dispensed into the wells of the assay plate. Reactions were started with the addition of 290 to 295 ul of 25 mM Hepes, pH 7, 2 mM ascorbate, 10 uM FeSO4, 100 uM HPP and 50 nM HGD. The reactions were monitored at 320 nm for 12 min. Reaction velocity accelerates as inhibitor is released from the enzyme until a steady state is reached, during which the reaction velocity is constant. The ratio of the steady state rate in mixtures containing mesotrione (or other herbicidal inhibitor) to the initial velocity of mixtures lacking inhibitor is termed the “OFF rate ratio”. Another parameter to record is the time span required for the reactions with inhibitor to reach the steady state. […] It is not certain that the steady state attained in the OFF rate reactions actually represents an equilibrium where OFF rates are now equal to ON rates. Because substrate and inhibitors bind in the same site, the high concentration of substrate present may competitively trap the inhibitor and prevent it from binding again. To be sure that improvement in ON rates is being taken into account, the ON and OFF rate ratios were multiplied together and the product is termed the “insensitivity parameter”. […] The variants in Table 9 were grouped according to the parameter in which they are improved compared to wild type. The sequence positions are numbered according to the wild-type maize amino acid sequence of SEQ ID 1. Some substitutions are effective in multiple contexts, as discussed in the next section.

[3] abbreviates: Elite soybean control, DNA none.
The mark [4] stands for this setting: substrate HPP, E. coli-expressed enzyme.

Take `CS(=O)(=O)c1ccc(C(=O)C2C(=O)CCCC2=O)c([N+](=O)[O-])c1` [mesotrione]: in the data set on T0 soybean plants (setting [3]), the “Mean Soybean Response (% Injury)” value is listed as 88% and the “Soybean % Injury Response Range” value was 80-95%. Further, in the data set with T0 soybean plants (Jack soybean control, DNA none), the “Mean Soybean Response (% Injury)” value is on record as 87% and the “Soybean % Injury Response Range” value was 75-95%.

B1: D0223961: shuffled maize HPPD variant used for chloroplast transformation (protein)
chain: MGPTPTATAAGAAVAAASAAEQAAFRLVGHRNFVRFNPRSDRFHTLAFHHVELWCADAASAAGRFSFALGAPLAARSDLSTGNSAHASLLLRSGSLSFLFTAPYAHGADAATAALPSFSAAAARRFAADHGLAVRAVALRVADAEDAFRASVAAGARPAFGPVDLGRGFRLAEVELYGDVVLRYVSYPDGAAGEPFLPGFEGVASPGAADYGLSRFDHIVGNVPELAPAAAYFAGFTGFHEFAEFTTEDVGTAESGLNSMALANNSENVLLPLNEPVHGTKRRSQIQTFLDHHGGPGVQHIALASDDVLRTLREMQARSAMGGFEFLPPPPSDYYDGVRRCAGDVLTEAQINECQELGVMVDRDDQGVLLQIFTKPVGDRPTFFLEIIQRIGCMEKDEKGQEYQKGGCGGFGKKNFGQLFKSIEDYEKSLEAKQAAAAATAQGS
modifications: HPPD variant
notes: shuffled maize HPPD variant used for chloroplast transformation
For B1, the “Soybean % Injury Response Range” value with T0 soybean plants (T0 soybean plants expressing the HPPD gene variant (per DNA construct)) is reported as 0-80%. For the same molecule, in the data set on T0 soybean plants (T0 soybean plants expressing the HPPD gene variant (per DNA construct), 0=no effect, 100=dead plant), the “Mean Soybean Response (% Injury)” value was found to be 26%. Besides, the kcat with maize HPPD [1] (variants truncated to ala20 vs full length) stood at 106 ± 12.4 min⁻¹.

B2: Maize wt: synthetic maize wild-type HPPD protein, SEQ ID NO: 1, expressed in E. coli (protein)
chain: MGPTPTAAAAGAAVAAASAAEQAAFRLVGHRNFVRFNPRSDRFHTLAFHHVELWCADAASAAGRFSFGLGAPLAARSDLSTGNSAHASLLLRSGSLSFLFTAPYAHGADAATAALPSFSAAAARRFAADHGLAVRAVALRVADAEDAFRASVAAGARPAFGPVDLGRGFRLAEVELYGDVVLRYVSYPDGAAGEPFLPGFEGVASPGAADYGLSRFDHIVGNVPELAPAAAYFAGFTGFHEFAEFTTEDVGTAESGLNSMVLANNSENVLLPLNEPVHGTKRRSQIQTFLDHHGGPGVQHMALASDDVLRTLREMQARSAMGGFEFMAPPTSDYYDGVRRRAGDVLTEAQIKECQELGVLVDRDDQGVLLQIFTKPVGDRPTLFLEIIQRIGCMEKDEKGQEYQKGGCGGFGKGNFSQLFKSIEDYEKSLEAKQAAAAAAAQGS
modifications: Zea mays
For the molecule B2, the “tolerance to mesotrione in T0 soybean plants” value in the data set with T0 soybean plants was “moderate tolerance”. Also, the “Insensitivity parameter (ON rate ratio × OFF rate ratio) relative to that of maize wild-type HPPD” value in the data set on maize HPPD [2] (Isoxaflutole (diketonitrile)), in the data set with maize HPPD [2] (Sulcotrione), in the data set on maize HPPD [2] (Topramezone), in the data set on maize HPPD [2] (mesotrione) and with maize HPPD [2] (tembotrione) was 1.0 in each case. Besides, the “Triple product (ON rate ratio × OFF rate ratio × kcat), relative to that of maize wild-type HPPD” value in the data set with maize HPPD [2] (inhibitor Isoxaflutole (diketonitrile)), in the data set with maize HPPD [2] (inhibitor Mesotrione), in the data set with maize HPPD [2] (inhibitor Sulcotrione), in the data set on maize HPPD [2] (inhibitor Tembotrione) and in the data set with maize HPPD [2] (inhibitor Topramezone) was 1.0 throughout. The “ON × OFF × kcat” value in the data set on maize HPPD [2] (mesotrione) is recorded as 9.88. For the same molecule, in the data set on maize HPPD [2] (mesotrione), the Vmax MT (maximum reaction rate attained with mesotrione in the determination of OFF rate ratio) worked out at 52 min⁻¹. Also, the “insensitivity parameter (ON rate ratio × OFF rate ratio)” value with maize HPPD [2] (mesotrione) is given as 0.049. Further, the ON rate ratio is reported as 0.2 in the data set with maize HPPD [2] and 0.19 in the data set with maize HPPD [2] (listed as WT). In the data set with maize HPPD [2] (mesotrione, pre-formed enzyme-inhibitor complex), the OFF rate ratio came to 0.26. For the same molecule, the “time span to attain steady state in OFF rate reaction” value in the data set with maize HPPD [2] (release of mesotrione from pre-formed complex, enzyme 240 nM) came out at 280 s. Further, the kcat in the data set on maize HPPD [1] (N-terminal truncated variants of maize wild-type HPPD, single measurement) was 166 min⁻¹; with maize HPPD [1] (setting [4]) it was 207 min⁻¹; in the data set on maize HPPD [1] (substrate HPP, E. coli-expressed enzyme, listed as wild type), “about 220 min^−1”. Also, the Km (as a rule, the concentration of substrate that gives half-maximal velocity) in the data set with maize HPPD [1] (setting [4]) came to 5.2 µM.

B3: SEQ ID NO: 1 (protein)
chain: MGPTPTAAAAGAAVAAASAAEQAAFRLVGHRNFVRFNPRSDRFHTLAFHHVELWCADAASAAGRFSFGLGAPLAARSDLSTGNSAHASLLLRSGSLSFLFTAPYAHGADAATAALPSFSAAAARRFAADHGLAVRAVALRVADAEDAFRASVAAGARPAFGPVDLGRGFRLAEVELYGDVVLRYVSYPDGAAGEPFLPGFEGVASPGAADYGLSRFDHIVGNVPELAPAAAYFAGFTGFHEFAEFTTEDVGTAESGLNSMVLANNSENVLLPLNEPVHGTKRRSQIQTFLDHHGGPGVQHMALASDDVLRTLREMQARSAMGGFEFMAPPTSDYYDGVRRRAGDVLTEAQIKECQELGVLVDRDDQGVLLQIFTKPVGDRPTLFLEIIQRIGCMEKDEKGQEYQKGGCGGFGKGNFSQLFKSIEDYEKSLEAKQAAAAAAAQGS
modifications: Zea mays
B3: in the data set on maize HPPD [2] (Mesotrione), the OFF ratio is on record as 0.255, the ON ratio is on record as 0.189 and the “ON × OFF Value” was 0.048. Besides, in the data set with maize HPPD [2] (Tembotrione), the OFF ratio is 0.037, the ON ratio was found to be 0.232 and the “ON × OFF Value” turned out to be 0.0087. Also, in the data set on maize HPPD [1] (maize HPPD, wt and variant), the Michaelis constant (Km) was determined as 5.2 µM and the kcat is 201.
